Test results taken from a protein production outcome set (Wang et al. 2014).

assay: label from the status in PepcDB records

| Sequence | protein production |
| --- | --- |
| MRYRDNLKRSLKQAALAAGLLMTMSCAVRATPQDDLRSAVEYNRPALVQKLVAQGVDPNLDTRDGTPLLVDALKDKNIDVAEALIRAKGLDFERANAAGENALMMAAYQGLLPLVRLMVETYDVEVNKTGWTALHYAATNGHDAIVQYLLDHGAYIDAESPNGTTPLMMATMGGQITTVKLLLDEGADMNLRNQQKMDVIDFAKRYHQDEIAAGLESRRRKLAEPGAQPVPARQPAAPAGMRPAAPVVPDVPAPMPAPRAPESAIDRDATSGLPGSLSDQKTVPPPDLRGN | failed |
| MSAATKQQCCARAEVPVRNLHSCDVFGLPAGGAFGRPRRDKENDMSLGTIILIILIIALLGGFTGVGGGPFYGTGYYGGGGLGLVIVILLILLLLGKI | failed |
| MSAATPPFRDPQLPFAKRVDDLMSRLTLDEKTAFLHQFAPAVERLGIAPFRTGQEALHGVAWMGPATVFPQAVGLGATWNEELVRRVGEAVSKEARAMRARDDRVGLNVWSPTVNLLRHPLWGRNEEGYSEDPRLTSAVATAYTRGLRGDHPAYWRTAPVLKHWLAHNNETDRDTSSSSVRPRVLHEYDLRAFRDTVEAGAVAGVMPAYNLVNGRPNHLSPHLGRHLRTWTQEDLLVCSDAGAPSNLVDSEHYFDTHEEATAAALRAGVDSFTDHGTDSSKIVARVRGALEAGLLTEADVDAAVRRQLSVRFRLGEFDPENDPYSGAADTGADFDTPEHRALARDAAEQAVVLLKNDGVLPLAPETRVAVVGLLADECKLDWYSGTLIHRSTPLEGLYERFGADRVSFAEGVDRVRLRTADGRFLHVLPADDASAEAPGTEGALDPALLAGRTDLPPLTTDAVGTELALIDWGEGVLTLRASDGRYLSVAEDGFVRASADQPGGWVVQETFRLEPHDDGHLLRHTGTGRPVQVAADGVKVAAPDAAAGAAAGGAGSADAEVFELVVVERGEDAVTRVAAGADVVVVVAGNDPHINGRETEDRTTLRLPAQQERLLRAARAANPATVLALVSAYPYAVGVETLPAVLWTAHGGQAAGTALARILAGDVSPAGRLPQTWYSDDADLPGLLDYDVIGGRQTYLYFEGTPLFPFGHGLSYASFGYGDLTAQVRDGAVAVSFTVTNTGEVSADEVAQLYVRAEAPSVPRPRRELLAHRRLTLAPGASDRVSFEVPLSALAFWDVAHDRWRLEPGPYALLVGASSEDVRLTTTVTIDGEPAVPRPVGARGVQAVDFDEQSGTEIVDRTKAAGDAVAAVSGRTGELLYRDCDFGAGAAGVTVSVAGAGSVEVALDGGPAVAVLSPDAPTAGPYDYVELASAFTAEGVHDLRVTLRGALRLAHVGFSG | failed |
| MSADIVFDRGSPSDIDEIKTFTSNTWKVGYYTDLYSKLADTGTMDDYVDKVIERWVNDGSVYVLRVSGRPVATIHMEKLPDGSVMLGGLRVHPEYRGSRLGMSIMQETIQFLRGKTERLRSAVYSWNEPSLRLVHRLGFHQVEEYPIYTFQGGSTAVPALKPVNERYAGRWRCFFIDWKYMCSDDPDIIHEEYSNNLIVDGSTFVYFDIYEGGIDLFVNDSDDASSFIEKYRSMNGRITFYVRKALANGLPYVPASSLTVWEYRY | not failed |
| MSADSNSTDADPTAHWSFETKQIHAGQHPDPTTNARALPIYATTSYTFDDTAHAAALFGLEIPGNIYTRIGNPTTDVVEQRIAALEGGVAALFLSSGQAAETFAILNLAGAGDHIVSSPRLYGGTYNLFHYSLAKLGIEVSFVDDPDDLDTWQAAVRPNTKAFFAETISNPQIDLLDTPAVSEVAHRNGVPLIVDNTIATPYLIQPLAQGADIVVHSATKYLGGHGAAIAGVIVDGGNFDWTQGRFPGFTTPDPSYHGVVFAELGPPAFALKARVQLLRDYGSAASPFNAFLVAQGLETLSLRIERHVANAQRVAEFLAARDDVLSVNYAGLPSSPWHERAKRLAPKGTGAVLSFELAGGIEAGKAFVNALKLHSHVANIGDVRSLVIHPASTTHAQLSPAEQLATGVSPGLVRLAVGIEGIDDILADLELGFAAARRFSADPQSVAAF | not failed |
| MSAEKSISSDHVPLSDPALKTINRNAGRNLNHIAFISTLGGLLFGVDTGVINGAIGYMATPAELNLSPNNEGLVTSGITLGAAFGAVFAGHLSDRIGRKRLLKYLALLFFVCTLACSLAPNALFMIISRVLLGLAVGGASVIVPTYLSEISTPEIRGRLVTQNELMIVTGQLLAFIVNAILGNWFGHISNIWRYMIGFGMIPAVALFFGMMVVPESPRWLVMVNQLDNAFDSLRKIRSHPETCNEEITQIQDTLNQESEIKQATFKDLSTPWIRRLVFIGIGLGVMQQFIGINIMMYYGTTILTNSGFAHNAALIANIGNGLVSVIATFIGMSIMNRVNRRSMLIAGIIGTTTSLILIVGVSAFLSQSPLLPILVVLCTMMFLGFFQGFISPLVWLLLSEIFPQNLRGLGMGVSTFFLWFANFLVGYFFPILLSAVGMTWTFLIFVFFNILSFIFAYKYAPETRGKSLELIQMEFKYGDTTGINPEDK | failed |
| MSAEKSSADTAKKTLTIYSTMSTDSERDTFRKLAAAFEKEHSDIHVSLHFPGNDYENMMRVRMAANDLPDLFDTHGWGKIRYGEYTADLRDMKWTQDLDPNLNSILKNKSGKVYAYPINQAKDGLAYNRNILDRYGIAPPETMDDFIKALRTIKEKSKGSIVPFWFAGYDKSSFAQYYDQFATPLLITDPAHNEKKQLINGTFQWSKFTYLSEILKQMQKEKLINIDAVTAKKSQLIELMAQNKIAFTMQGGTLGQDVAQINPNVKVGIIPTPAIHPGDDPIWIGGERYTLAAWKDSPQLKEAKDFIAFMARPANAKQMAEATSLPSGLTNVKADIFYANDYEYYQDVKVEPYFDRLYLPNGMWDVLGTVGQELAADILAPQDISQKLGREYKRLREQSETQGAENNELEHHHHHH | not failed |
| MSAELTRARQQLSQIRGYLRQGKVMPAAQAFQSALVIVLKSPLMRAEREEFERMFADAAHHLNNDAGLRALFPLKIEYLPGSEKELLDIIRELVTAVNNAAVTEAQEQLAALDARKAAGLEQGQAHLDAQEFDAAAAVFRQLSHEFKDDPQLRGEIGERFLKAGRYEEAFDYLAQALDLSPESIHLYNRIGIALRRLGRFETGEKYYLRALQYAGHDPNLLFNLGRLYVDWQRWDKVAKAAAAALRVNPAFDEARKMLEFAERKLQR | failed |
| MSAEQDKEPIALKRVRGGDSGLDGLGGPNIQLGSPDKKKRKANTQGSSFPPLSEYAPPPNPNSDHLVAANPFDDSYNTISYKPLPSSNPYLGPGYPGFGGYSTFRMPPHVPPRMSSPYCGPYSLRNQPHPFPQNPLGMGFNRPHAFNFGPHDNSNFGNPPYNNVLTQDINMPGQHFRQGSAENFSQIPPQNVGQVSNPDLASNFAPGNNSNFTSPLETNHSFIPPPNAFGQAKAPLPKQDFTQGATKTPNQNSSTHPPHLNMEDPVNQSNVELKNVNRNNVVQENSRSGSAEATNNHANGTQNKPRQPRGAADLCTPDKSRKFSLLPSRHGHSSSDPVYPCGICTNEVNDDQDAILCEASCQKWFHRICTGMTETAYGLLTAEASAVWGCDTCMADKDVQLMRTREAFGPPAVGGDA | not failed |
| MSAFINQAAACAGDHAPRSAAQEARRGLRASLPVLLGFIPFALVLGAQATQKGLSVMEVPLMTGLNFGGGSEFTAIRLWTSPPHLLLIAAMSLLVNSRHLLMGAALAPYLRHVPRRRALAALFFMCDESWALALADAQSRATGRISLGYYLGVSAGLYLTWVVFTAIGAALGPVIGDVERYGFDMAFTAVFLVLLRGMWRGLRASRPWLASLAAAALTYRLMPDGAWYVAAGALAGLACAALTVPKEARA | failed |
| MSAKIKIIPFGGVRENGKNMYAVDVNGGIYILDCGLKYPENELLGIDVVIPDWTYLRENKDRIVAVFLTHGHADAIGALPYFLSEFNVPVFGSEMTIALAKINVADEPKIKKFDDFHVIDEKTEIDFGDVVVSFFSTTHSIPESLGIDLKTDEGQIIYTGDFKFDQTAKPGYQTDYARLGAIGQAGVLALLSDSANAENPAMNASEQSLAESIEETFHYRDSRVIVACVASNILRIQQVFDAAAKTGRKVCLTGKDLEKIVNTAMELGKLTFDADLLVTTDQLDDLAPNEIVILQTGKMGEPIKAIQRMANKQEKDFNIQAGDLVYITTTPSHAMDTTVAQTRDMVYRAGGEVKAISDELNSSGHAYKRDLQLMLNLMKPKFLIPIQGEYRLLNAHADAAMELGIPADHIFILSKGDVLTYAQGDMGLGEGIDVSDTMIDGIGVGDIGNIVLRDRKVLADDGIFIAVVTIDRKKKQIVADPKITSRGFVYVKANKDLMQESSQIIRKAVQNNLDNKEFDWGHLKQDVREHLSHYLFEQTHRRPVILPVIMEVNQHHRRTTKEKPGAGATNEKPVTKSAPKAKAEQTAKPTHKPRRNRKRRPTKKTTTDNA | failed |
| MSALPSYTQNGQTITFAFAQPLQLTIVTPEIIRVFINRGEQGESYAIEGHKIQATDFTIESAGDHYIIRTSALTIHLDSERHLDTFDKDGNALITLEHHHHHH | not failed |
| MSALRTIGALTAREMLKFVRDRSRVLGALAQPLALWLLLGLGFQNTFQPPQGSVGGSYGAFLLPGILALVLLFTAIFSTISIVEERTSGFLQAVLVAPTPRTALVFGTTLGGTLLATVQALLFLGALPLIDLSPGVAGVGMIVAVCLLTGLAFTALGFAIAWRMETTRGFHAVMNLFLLPLWFLSGAMFPVDGAAPVLQVVMWGNPVSYAVSGLRHGFHGFAGTPAALAGPGVCLAVTGAFAVLMTGLAVWQVRRPFFQT | failed |
| MSANDSAVNESCHCGGCGSSGNGKFLNETPMLDQLESGPWPSFISGFKALAERTEKPMLRGVLDQLEYSYKTKMGYWKGGLVTVDGYGAGIITRYSMIKDKFPEAAEFHTMRIQPAPGLHYNTTMLRELCDIWEKYGSGIITLHGQTGDIMLQGIEQDKVQACFDELNQKGWDLGGAGAGMRTGVSCIGPGRCDNACYDNLKLHLEALKHFSPQVHRPEWNYKLKFKFSGCPNDCTNAIMRSDLAVIGTWRDSIQIDHDEVKAWIAEKGVDALVNNVINRCPTKAIRLQDGDIDISTRDCVRCMHCINAMSKALSPGKDKGIALLIGGKNTLKVGVNMGSLIVPFMKMETDEDREAFIELIEEIIDWWDDAGLDHERIGETIERVGLKQFLDGVGIEYDINQISRPRDNPYFKAKY | failed |
| MSAPLPLCVIGAGCVGMRHVEVARRSPQIRLTAVVEPVETRRRALAESGLVAVATLEEVPRETRAAIVATPTPDHLATGLAALSRGWAVLVEKPTAGTMDDARVLLGAADRAGLPLYVGHHRRCHPFSRAAREALGGIGDLVGLQGLWSLRKHDSYYAEDWRRQAGAGPLMTNLSHEIDLLRFLVGDMVEVSALTSSARRGLVVPDTAALAFRFADGALGSFLISDAGASPWSFEAACAENPAIAVSGQDYIRITGTAGALEFPSLTRWGRSAPGEIEWSKPLARAAGAGFARVDPLLEQINRFAAVLEGAQDDVLCTGTDGNAALEMTLAAALSGKLGRPVRAHEVPGDYSGI | failed |
| MSAPQVWPWTNQTPPLKGDPTPEPKPQERPTRLKHPLDAPHSVYGVDKWGKGLIVVTEEGEIGLKNPLRPEADAVSLPGILHDLEQRGIRAPMILRISSYLENEICHINDSFADAIARSGYKGAYRGVFPIKVNQQAQVIDRIVEFGHRYSYGLEAGSKPELVIALAHKLATDALIVCNGVKDAEFVRLAILSRKLGFNTVIVLESPKEADTVIAVYEELGIEPLLGVRVKLTNQISGKWEESSGDRSSFGMNTDQLVRVVDKLRDAGLIHCLKLQHSHLGSQVPDVNDVRRAVGEACRYFTELSAEGVPLTHLDLGGGMGVDYTGEKRATENSINYTVEEYCANVVETVAYAMDEAGIDHPTIVTESGRAVVATSSLLVFNVLESTLYDAPTAPGTEPDDHHLVSDLAAVNGYLTPARLQECWNDATFYRNELRALFRRGYVDLRQMARAERIYLSLMARIKTMVAEVEAETDLDAQMEKIADIYHCNFSLFQSLPDVWAIDQLHPIVPLQMLNEAPDRRAVLSDITCDSDGKVDRFILADGVSPSLPVHSLPEDQDYYLGVFFVGAYQETLGDLHNLFGDTNVVTIDLRADGGFDLLHEQEGDTISEVLSYVEYDPADCVAAFRKLVDGAISNGCLKASERKLIIGAYRDSINGYTYYE | failed |
